Tests used:
[1] = biological target: nuclear proteins (mixture of Jurkat nuclear extract proteins purified on protein H-Sepharose); assay: SPR (BIACORE X), protein H over immobilised nuclear proteins; mean ± SD of three experiments
[2] = biological target: nucleophosmin/B23 (NPM), papain-released material of Jurkat T cell membrane preparations, Mono-Q pool 85-87 (human) (UniProt P06748); assay: Affinity chromatography of 125I-labelled pool 85-87 (run-through of protein A-Sepharose) on protein H-Sepharose
Chain of nucleophosmin/B23 (NPM), papain-released material of Jurkat T cell membrane preparations, Mono-Q pool 85-87 (human) (P06748 1-147 limits assumed): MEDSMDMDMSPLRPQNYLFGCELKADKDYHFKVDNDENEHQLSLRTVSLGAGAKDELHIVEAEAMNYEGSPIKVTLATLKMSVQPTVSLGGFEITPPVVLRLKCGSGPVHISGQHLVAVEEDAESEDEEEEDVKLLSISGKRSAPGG

[3] = biological target: nucleophosmin/B23 (NPM), papain-released material of Jurkat T cell membrane preparations, Mono-Q pool 85-87 (human) (UniProt P06748); assay: SPR (BIACORE X), protein H over biotinylated NPM on an avidin chip; mean ± SD of three experiments

Chain of protein H of Streptococcus pyogenes, COOH-terminally truncated fragment expressed by and purified from E. coli (305 amino acids) (P50470 42-346): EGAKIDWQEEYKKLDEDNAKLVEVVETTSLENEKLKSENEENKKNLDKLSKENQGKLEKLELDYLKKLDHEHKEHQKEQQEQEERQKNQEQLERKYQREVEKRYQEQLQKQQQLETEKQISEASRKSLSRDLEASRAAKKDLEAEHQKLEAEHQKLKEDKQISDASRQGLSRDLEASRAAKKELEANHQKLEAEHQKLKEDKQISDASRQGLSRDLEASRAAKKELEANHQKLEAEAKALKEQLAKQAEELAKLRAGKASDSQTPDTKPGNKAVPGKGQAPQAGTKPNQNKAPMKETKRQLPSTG

protein H of Streptococcus pyogenes, COOH-terminally truncated fragment expressed by and purified from E. coli (305 amino acids) (from UniProt P50470 42-346)
Ka [1]: 2.62e+07 M⁻¹ | Kd [1]: 44 nM | koff [1]: 6.7e-05 s⁻¹ | kon [1]: 1700 M⁻¹ s⁻¹ | percent of radioactivity bound [2]: > 70% | Ka [3]: 3.6e+06 M⁻¹ | Kd [3]: 286 nM | koff [3]: 0.0019 s⁻¹ | kon [3]: 6700 M⁻¹ s⁻¹

From patent US6833355
